Publication PMC6033896 (Scientific Reports, 2018)

Molecular target: T1, fluorescent labelled Bid BH3 peptide (fluorescent label (Flu- or FAM-), position not stated)
T1 construct: BH3 peptide derived from the pro-apoptotic protein Bid; The methods name two probes (Flu-Bid with Mcl-1); the two probes may differ in label and limits; also called Flu-Bid; FAM-Bid
Test: fluorescence polarisation; direct binding of the fluorescent Bid probe to recombinant protein; Ex 485 nm, Em 530 nm, room temperature; buffer of the Kd determination not told apart from the two competitive assay buffers
Details: both partners purified

Binder	Kd [nM]
recombinant Mcl-1 protein (wild type) (natural protein) EDELYRQSLEIISRYLREQATGAKDTKPMGRSGATSRKALETLRRVGDGVQRNHETAFQGMLRKLDIKNEDDVKSLSRVMIHVFSDGVTNWGRIVTLISFGAFVAKHLKTINQESCIEPLAESITDVLVRTKRDWLVKQRGWDGFVEFFHVEDLEGG	3 ± 0.1
recombinant Bcl-xL protein (natural protein) MSQSNRELVVDFLSYKLSQKGYSWSQFSDVEENRTEAPEGTESEVKQALREAGDEFELRYRRAFSDLTSQLHITPGTAYQSFEQVVNELFRDGVNWGRIVAFFSFGGALCVESVDKEMQVLVSRIAAWMATYLNDHLEPWIQENGGWDTFVELYGNNAAAESRKGQERFN	20 ± 2.3
